Test results: publication PMC6955305, “An inhibitor of complement C5 provides structural insights into activation” (Proceedings of the National Academy of Sciences of the …, 2019)

Assays:
[1] = target: complement C5 (human (endogenous in serum)) (UniProt P01031); assay: SPR
[2] = target: complement C5 (human (endogenous in serum), UniProt P01031 19-673; P01031 678-1676); assay: SEC-MALS; 100 uL at 1 mg/mL on S200 10/300 in PBS; C5-OmCI with RaCI and EcuFab, with or without CirpT1 (2-fold molar excess, excess removed by SEC); conditions: both partners purified
Sequence of complement C5 (P01031 19-673, chain 1 of 2): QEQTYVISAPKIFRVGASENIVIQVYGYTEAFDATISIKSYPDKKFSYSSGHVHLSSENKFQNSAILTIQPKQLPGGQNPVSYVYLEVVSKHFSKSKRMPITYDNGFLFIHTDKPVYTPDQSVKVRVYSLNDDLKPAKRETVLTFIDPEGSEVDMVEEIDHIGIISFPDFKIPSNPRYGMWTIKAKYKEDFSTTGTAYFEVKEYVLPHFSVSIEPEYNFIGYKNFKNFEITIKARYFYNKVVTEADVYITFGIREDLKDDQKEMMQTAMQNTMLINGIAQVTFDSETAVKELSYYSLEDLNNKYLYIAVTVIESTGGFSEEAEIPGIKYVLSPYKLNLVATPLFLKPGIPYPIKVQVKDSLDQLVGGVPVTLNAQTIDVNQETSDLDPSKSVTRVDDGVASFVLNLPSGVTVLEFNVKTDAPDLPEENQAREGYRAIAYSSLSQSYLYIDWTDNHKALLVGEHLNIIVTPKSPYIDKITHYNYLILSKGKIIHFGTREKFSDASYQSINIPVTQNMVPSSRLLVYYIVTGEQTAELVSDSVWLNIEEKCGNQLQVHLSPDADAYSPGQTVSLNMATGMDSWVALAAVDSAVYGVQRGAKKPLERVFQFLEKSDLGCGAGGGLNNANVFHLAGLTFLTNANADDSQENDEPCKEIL
Sequence of complement C5 (P01031 678-1676, chain 2 of 2): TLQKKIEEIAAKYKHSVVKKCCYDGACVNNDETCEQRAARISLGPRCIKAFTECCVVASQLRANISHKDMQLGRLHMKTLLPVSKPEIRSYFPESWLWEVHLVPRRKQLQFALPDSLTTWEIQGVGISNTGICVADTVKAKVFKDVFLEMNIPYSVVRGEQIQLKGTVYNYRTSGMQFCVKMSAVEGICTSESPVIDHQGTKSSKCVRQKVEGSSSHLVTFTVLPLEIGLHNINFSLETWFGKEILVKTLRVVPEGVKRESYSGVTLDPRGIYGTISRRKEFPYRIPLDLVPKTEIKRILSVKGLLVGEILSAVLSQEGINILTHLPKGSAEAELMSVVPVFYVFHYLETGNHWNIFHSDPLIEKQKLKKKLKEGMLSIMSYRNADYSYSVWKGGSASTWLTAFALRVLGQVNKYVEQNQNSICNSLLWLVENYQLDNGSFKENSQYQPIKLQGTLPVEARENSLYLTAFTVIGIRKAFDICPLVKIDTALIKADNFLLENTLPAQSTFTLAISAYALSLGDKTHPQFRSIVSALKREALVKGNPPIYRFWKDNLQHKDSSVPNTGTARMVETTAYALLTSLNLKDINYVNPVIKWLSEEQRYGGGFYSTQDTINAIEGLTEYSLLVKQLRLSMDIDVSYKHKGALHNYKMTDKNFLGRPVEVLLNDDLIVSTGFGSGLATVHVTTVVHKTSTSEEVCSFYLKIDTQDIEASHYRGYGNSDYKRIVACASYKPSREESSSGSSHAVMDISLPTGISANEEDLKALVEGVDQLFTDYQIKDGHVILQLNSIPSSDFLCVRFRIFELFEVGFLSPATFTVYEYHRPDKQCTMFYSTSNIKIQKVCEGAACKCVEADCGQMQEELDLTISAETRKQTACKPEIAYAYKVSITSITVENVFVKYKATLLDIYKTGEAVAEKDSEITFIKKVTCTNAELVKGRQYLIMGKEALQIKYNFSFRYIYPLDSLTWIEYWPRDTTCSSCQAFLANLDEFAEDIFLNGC

Sequence of complement C5 (human (endogenous in serum)) (P01031 19-673, chain 1 of 2): as the sequence (P01031 19-673, chain 1 of 2) above
Sequence of complement C5 (human (endogenous in serum)) (P01031 678-1676, chain 2 of 2): as the sequence (P01031 678-1676, chain 2 of 2) above

| Molecule | Kd [1] [nM] | binding result [2] |
| --- | --- | --- |
| CirpT1 (complement inhibitor from Rhipicephalus pulchellus of the terminal pathway, family member 1) (natural protein) | 10 |  |
| OmCI (natural protein, also called Coversin) DSESDCTGSEPVDAFQAFSEGKEAYVLVRSTDPKARDCLKGEPAGEKQDNTLPVMMTFKNGTDWASTDWTFTLDGAKVTATLGNLTQNREVVYDSQSHHCHVDKVEKEVPDYEMWMLDAGGLEVEVECCRQKLEELASGRNQMYPHLKDC |  | binds |
